{"source": "paper PMC8461307", "about": "(2021)", "molecular_target": "purified C3b (UniProt P01024 23-667; P01024 749-1663)", "sequence (P01024 23-667, chain 1 of 2)": "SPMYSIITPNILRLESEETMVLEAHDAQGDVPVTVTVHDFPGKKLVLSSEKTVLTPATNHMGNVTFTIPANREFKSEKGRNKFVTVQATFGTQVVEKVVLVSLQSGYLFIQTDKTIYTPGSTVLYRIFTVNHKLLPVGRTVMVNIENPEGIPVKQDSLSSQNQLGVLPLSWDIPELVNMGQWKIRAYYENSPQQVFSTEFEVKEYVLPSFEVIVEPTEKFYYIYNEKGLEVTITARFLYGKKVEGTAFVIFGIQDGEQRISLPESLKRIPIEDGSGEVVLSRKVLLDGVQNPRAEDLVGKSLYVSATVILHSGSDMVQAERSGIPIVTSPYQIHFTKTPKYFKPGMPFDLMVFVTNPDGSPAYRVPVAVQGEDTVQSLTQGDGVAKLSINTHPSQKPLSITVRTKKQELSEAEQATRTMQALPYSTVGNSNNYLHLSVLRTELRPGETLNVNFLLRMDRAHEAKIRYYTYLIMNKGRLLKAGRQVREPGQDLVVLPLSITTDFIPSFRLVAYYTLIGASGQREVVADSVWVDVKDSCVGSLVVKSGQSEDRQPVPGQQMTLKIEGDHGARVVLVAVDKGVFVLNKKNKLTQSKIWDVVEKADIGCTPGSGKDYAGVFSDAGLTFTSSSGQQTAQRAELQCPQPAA", "sequence (P01024 749-1663, chain 2 of 2)": "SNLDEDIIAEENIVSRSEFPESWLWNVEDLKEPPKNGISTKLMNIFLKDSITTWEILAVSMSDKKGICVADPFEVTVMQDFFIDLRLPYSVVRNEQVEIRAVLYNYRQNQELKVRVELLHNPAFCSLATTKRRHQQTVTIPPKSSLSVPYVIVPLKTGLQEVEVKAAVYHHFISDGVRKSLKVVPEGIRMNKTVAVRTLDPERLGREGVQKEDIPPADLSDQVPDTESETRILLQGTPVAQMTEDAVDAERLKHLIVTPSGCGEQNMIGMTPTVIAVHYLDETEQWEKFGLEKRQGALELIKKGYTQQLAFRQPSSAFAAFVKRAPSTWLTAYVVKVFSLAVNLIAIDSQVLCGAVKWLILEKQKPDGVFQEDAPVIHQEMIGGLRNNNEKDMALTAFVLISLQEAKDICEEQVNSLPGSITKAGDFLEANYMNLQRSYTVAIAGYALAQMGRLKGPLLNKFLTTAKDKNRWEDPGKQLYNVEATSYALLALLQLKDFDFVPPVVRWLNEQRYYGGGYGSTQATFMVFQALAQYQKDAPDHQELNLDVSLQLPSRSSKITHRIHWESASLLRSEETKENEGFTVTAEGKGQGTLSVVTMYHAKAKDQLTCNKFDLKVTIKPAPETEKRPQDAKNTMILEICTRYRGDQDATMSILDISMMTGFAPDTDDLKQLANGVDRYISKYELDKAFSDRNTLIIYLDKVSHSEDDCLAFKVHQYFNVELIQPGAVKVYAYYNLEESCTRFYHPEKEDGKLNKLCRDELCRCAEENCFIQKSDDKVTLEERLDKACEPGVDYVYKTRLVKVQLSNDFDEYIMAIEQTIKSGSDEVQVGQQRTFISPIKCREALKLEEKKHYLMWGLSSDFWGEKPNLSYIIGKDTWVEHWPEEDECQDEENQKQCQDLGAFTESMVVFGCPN", "test": "SPR", "data": [{"binder": "recombinant wild-type Factor H-related protein 5 (FHR-5WT) (natural protein) EGTLCDFPKIHHGFLYDEEDYNPFSQVPTGEVFYYSCEYNFVSPSKSFWTRITCTEEGWSPTPKCLRMCSFPFVKNGHSESSGLIHLEGDTVQIICNTGYSLQNNEKNISCVERGWSTPPICSFTKGECHVPILEANVDAQPKKESYKVGDVLKFSCRKNLIRVGSDSVQCYQFGWSPNFPTCKGQVRSCGPPPQLSNGEVKEIRKEEYGHNEVVEYDCNPNFIINGPKKIQCVDGEWTTLPTCVEQVKTCGYIPELEYGYVQPSVPPYQHGVSVEVNCRNEYAMIGNNMITCINGIWTELPMCVATHQLKRCKIAGVNIKTLLKLSGKEFNHNSRIRYRCSDIFRYRHSVCINGKWNPEVDCTEKREQFCPPPPQIPNAQNMTTTVNYQDGEKVAVLCKENYLLPEAKEIVCKDGRWQSLPRCVESTAYCGPPPSINNGDTTSFPLSVYPPGSTVTYRCQSFYKLQGSVTVTCRNKQWSEPPRCLDPCVVSEENMNKNNIQLKWRNDGKLYAKTGDAVEFQCKFPHKAMISSPPFRAICQEGKFEYPICE", "values": [{"measurement": "koff", "value": 0.141, "unit": "s⁻¹"}]}]}
